Results as given in the RNAGym collection of RNA variant scans (doi:10.7554/elife.80360).

B1: Hairpin Ribozyme (parent)
chain: GUCCUCUUUCACGUGCGCGUGAAAGAGAGAAGUGAACCAGAGAAACACACGUUGUGGUAUAUUACCUGGUA

Variants of: B1
Assay: self-cleavage, relative activity (ratio to wild type); higher = more cleavage; co-transcriptional

| Variant | self-cleavage |
| --- | --- |
| GUCCUCUUUCACGUGCGCGUGAAAGAGAGAAGUGAACCAGAGAAAAUCACGUUGUGGUAUAUUACCUGGUA | 0.199 |
| GUCCUCUUUCACGUGCGCGUGAAAGAGAGAAGUGAACCAGAGAAAAGCACGUUGUGGUAUAUUACCUGGUA | 0.133 |
| GUCCUCUUUCACGUGCGCGUGAAAGAGAGAAGUGAACCAGAGAAAAACACGUUGUGGUGUAUUACCUGGUA | 0.107 |
| GUCCUCUUUCACGUGCGCGUGAAAGAGAGAAGUGAACCAGAGAAUCACACGUUGCGGUAUAUUACCUGGUA | 0.0822 |
| GUCCUCUUUCACGUGCGCGUGAAAGAGAGAAGUGAACCAGAGAAUCACACGUUGGGGUAUAUUACCUGGUA | 0.0773 |
| GUCCUCUUUCACGUGCGCGUGAAAGAGAGAAGUGAACCAGAGAAAAACACGUUGUGGUAUAAUACCUGGUA | 0.132 |
| GUCCUCUUUCACGUGCGCGUGAAAGAGAGAAGUGAACCAGAGAAAAACACGUUGUGCUAUAUUACCUGGUA | 0.156 |
| GUCCUCUUUCACGUGCGCGUGAAAGAGAGAAGUGAACCAGAGAAAAACACCUUGUGGUAUAUUACCUGGUA | 0.0397 |
| GUCCUCUUUCACGUGCGCGUGAAAGAGAGAAGUGAACCAGAGAAAAACACGUUGUGGUAUCUUACCUGGUA | 0.311 |
| GUCCUCUUUCACGUGCGCGUGAAAGAGAGAAGUGAACCAGAGAAAAACAUGUUGUGGUAUAUUACCUGGUA | 0.111 |
| GUCCUCUUUCACGUGCGCGUGAAAGAGAGAAGUGAACCAGAGAAAAACACGUUGUGGUAUAUUACCUGGUG | 0.24 |
| GUCCUCUUUCACGUGCGCGUGAAAGAGAGAAGUGAACCAGAGAAAAACCCGUUGUGGUAUAUUACCUGGUA | 0.156 |
| GUCCUCUUUCACGUGCGCGUGAAAGAGAGAAGUGAACCAGAGAAAAACACGUUGUGGUAUAUUACCAGGUA | 0.122 |
| GUCCUCUUUCACGUGCGCGUGAAAGAGAGAAGUGAACCAGAGAAAAACACGUUGUGGUAUAUUAGCUGGUA | 0.146 |
| GUCCUCUUUCACGUGCGCGUGAAAGAGAGAAGUGAACCAGAGAAAAACACGUUGUGGUAUAUUAACUGGUA | 0.13 |
| GUCCUCUUUCACGUGCGCGUGAAAGAGAGAAGUGAACCAGAGAAUCACACGUUGUGGUACAUUACCUGGUA | 0.112 |
| GUCCUCUUUCACGUGCGCGUGAAAGAGAGAAGUGAACCAGAGAAAAACACGUUGUGGUAUAUUACCUAGUA | 0.12 |
| GUCCUCUUUCACGUGCGCGUGAAAGAGAGAAGUGAACCAGAGAAAAACACGUUGUGGUAUAUUACCUCGUA | 0.277 |
| GUCCUCUUUCACGUGCGCGUGAAAGAGAGAAGUGAACCAGAGAAUCACACGUUGUGGUAUAUUACCCGGUA | 0.0755 |

| Variant | self-cleavage |
| --- | --- |
| GUCCUCUUUCACGUGCGCGUGAAAGAGAGAAGUGAACCAGAGAAAGACACGUUGUGGUAUAUUACGUGGUA | 0.162 |
| GUCCUCUUUCACGUGCGCGUGAAAGAGAGAAGUGAACCAGAGAAAGACACGUUGUGGUAUAUUACAUGGUA | 0.253 |
| GUCCUCUUUCACGUGCGCGUGAAAGAGAGAAGUGAACCAGAGAAAGACACGUUGUGGUAUAUUAUCUGGUA | 0.107 |
| GUCCUCUUUCACGUGCGCGUGAAAGAGAGAAGUGAACCAGAGAAAGACACGUUGUGGUAUAUUACCUGGUC | 0.211 |
| GUCCUCUUUCACGUGCGCGUGAAAGAGAGAAGUGAACCAGAGAAAAACACGUUGUAGUAUAUUACCUGGUA | 0.167 |
| GUCCUCUUUCACGUGCGCGUGAAAGAGAGAAGUGAACCAGAGAAUCACACGUUGUGGAAUAUUACCUGGUA | 0.132 |
| GUCCUCUUUCACGUGCGCGUGAAAGAGAGAAGUGAACCAGAGAAUCACACGUUGUGGGAUAUUACCUGGUA | 0.123 |
| GUCCUCUUUCACGUGCGCGUGAAAGAGAGAAGUGAACCAGAGAAAGACGCGUUGUGGUAUAUUACCUGGUA | 0.137 |
| GUCCUCUUUCACGUGCGCGUGAAAGAGAGAAGUGAACCAGAGAAAAACACGUUGGGGUAUAUUACCUGGUA | 0.253 |
| GUCCUCUUUCACGUGCGCGUGAAAGAGAGAAGUGAACCAGAGAAAAACACGUUGCGGUAUAUUACCUGGUA | 0.324 |
| GUCCUCUUUCACGUGCGCGUGAAAGAGAGAAGUGAACCAGAGAAUCACACGUUGUGGUAUAUGACCUGGUA | 0.0513 |
| GUCCUCUUUCACGUGCGCGUGAAAGAGAGAAGUGAACCAGAGAAUCACACGUUGUGGUAUAUAACCUGGUA | 0.148 |
| GUCCUCUUUCACGUGCGCGUGAAAGAGAGAAGUGAACCAGAGAAAAACACGUUCUGGUAUAUUACCUGGUA | 0.129 |
| GUCCUCUUUCACGUGCGCGUGAAAGAGAGAAGUGAACCAGAGAAAAACACGUUAUGGUAUAUUACCUGGUA | 0.126 |
| GUCCUCUUUCACGUGCGCGUGAAAGAGAGAAGUGAACCAGAGAAAAACACGUUGUGGUAUAUCACCUGGUA | 0.225 |
| GUCCUCUUUCACGUGCGCGUGAAAGAGAGAAGUGAACCAGAGAAAAACACGUUGUGGUAUAUAACCUGGUA | 0.12 |
| GUCCUCUUUCACGUGCGCGUGAAAGAGAGAAGUGAACCAGAGAAAGACAGGUUGUGGUAUAUUACCUGGUA | 0.217 |
| GUCCUCUUUCACGUGCGCGUGAAAGAGAGAAGUGAACCAGAGAAAGACAAGUUGUGGUAUAUUACCUGGUA | 0.0593 |
| GUCCUCUUUCACGUGCGCGUGAAAGAGAGAAGUGAACCAGAGAAAGACACGUUGUGGUAUCUUACCUGGUA | 0.154 |
